Measured values from the nanobody polyreactivity screen of Harvey et al. (2022).

Assay: yeast display, Sf9 membrane polyspecificity reagent, FACS + sequencing; frameworks hold sequencing errors
Procedure, shortened: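 After 36–48 hours of galactose induction, yeast (Saccharomyces cerevisiae BJ5465) displaying a synthetic nanobody library were stained at 4 °C for 1 hour with 10% biotinylated, detergent-solubilized Sf9 membrane reagent. Streptavidin microbeads enriched the stained cells before FACS sorting into low and high (top ~1%) gates on anti-HA and streptavidin fluorescence. Each clone's polyreactivity label reflects its gate of origin.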

Sequence	polyreactivity (PSR sort gate)
QVQLVESGGGLVQAGGSLRLSCAASGRIFAWYTMVWYRQAPGKERELVATISSSGGSTYYADSVKGLFTISRDNAKNTVYLQMNSLKPEDTAVYYCAAQYYPYSYAHRYGYCGQGTQVTVSS	high polyreactivity
QVQLVESGGGLVQAGGSLRLSCAASGRIFAYNAMGWYRPAPGKERELVADISSGGNTYYADSVKGRFTISRDNAKNTVYLQMNSLKPEDTAVYYCAADIAWYTHYHRIFDYWGQGTQVTVSS	low polyreactivity
QVQLVESGGGLVQAGGSLRLSCAASGRIFAYNAMGWYRQAPGKERELVAAIDWSGGRTYYADSVKGRFTISRDNEKNTVYLQMNSLKPEDTAVYYCATDVNSYGYYYWGQGTQVTVSS	high polyreactivity
QVQLVESGGGLVQAGGSLRLSCAASGRIFAYNAMGWYRQAPGKEREVVAAIDSGGDTNYADSVKGRFTISRDNAKNTVYLQMNSLKPEDTAVYYCNVTYSGQATFAYTDSARYDYWGQGTQVTVSS	low polyreactivity
QVQLVESGGGLVQAGGSLRLSCAASGRIFAYYAMGWNRQAPGKERELVAAISRSGVSTYYADSVKGRFTISRDNAKNTVYLQRNSLKPEDTAVYYCAARWRSGFTSGDYWGQGTLVTVSS	low polyreactivity
QVQLVESGGGLVQAGGSLRLSCAASGRIFAYYAMGWYRQAPGKERELGATITGGGDRTYYADSVKGRFTISRDNAKNTVYLQMNSLKPEDTAVYYCNARVWYYSPYYYWGQRTQVTVSS	low polyreactivity
QVQLVESGGGLVQAGGSLRLSCAASGRIFAYYAMGWYRQAPGKERELVAAINTSGATTNYADSVKGRFTISRDKAKNTVYLQMNSLKPEDTAVYYCAAWKGVYTYNYWGQGTQVTVSS	high polyreactivity
QVQLVESGGGLVQAGGSLRLSCAASGRIFAYYAMGWYRQAPGKERELVAAISSGGTTNYADSVKGRFTISRDNAKNTVYLQMNSLKPEDTAVYYCNADGWRRSRQYYYWGQGTQVTVSS	low polyreactivity
QVQLVESGGGLVQAGGSLRLSCAASGRIFAYYAMGWYRQAPGKERELVAAITSRGGRTYYADSVKGRFTISRDNAKNTVYLQMNSLKPEDTAVYYCAAKGRPDGKYDYWGQGTQVTVSS	high polyreactivity
QVQLVESGGGLVQAGGSLRLSCAASGRIFAYYAMGWYRQAPGTERELVAAISRSGVSTYYADSVKGRFTISRDNAKNTVYLQMNSLKPEDTAVYYCAAERYWTYYSGFVYGGDNYWGQGTQVTVSS	low polyreactivity
QVQLVESGGGLVQAGGSLRLSCAASGRIFAYYTMGWYRQAPGKERELVAAITKRGGSTYYADSVKGRFTISRDNAKNTVYLQMNSLKPEDTAVYYCAADPHRYRYRSPHDYWGQGTQVTVSS	high polyreactivity
QVQLVESGGGLVQAGGSLRLSCAASGRIFAYYTMGWYRQAPGKERELVAAITSRGGSTYYADSVKGRFTISRDNAKKTVYLQMNSLKPEDTAVYYCAALRPSNVDYWGQGTQVTVSS	high polyreactivity
QVQLVESGGGLVQAGGSLRLSCAASGRIFAYYVMGWYRQAPGKERELVASISSGGGTYYADSVKGRFTISRDNAKNTVYLQMNSLKPEDTAVYYCAARWRRYVYPDGHLFWYDYWGQGTQVTVSS	high polyreactivity
QVQLVESGGGLVQAGGSLRLSCAASGRIFDANAMGWYRQAPGKERELVAAITVSGGSTYYADSVKGRFTISRDNAKNTVYLEMNSLKPEDTAVYYCAKSLVPWWYKVDYDYWGQGTQVTVSS	low polyreactivity
QVQLVESGGGLVQAGGSLRLSCAASGRIFDANVMGGYRQAPGKERELVAAISSGGRTKYADSVKGRFTISRDNAKNTVYLQMNSLKPEDTAVYYCAKKHSPLYDYWGQGTQVTVSS	low polyreactivity
QVQLVESGGGLVQAGGSLRLSCAASGRIFDDNAMGWYRQAPGKERELVASITVSTGSTYYADSVKGRFTISRDNAKNTVYLQMNSLKPEDTAVSYCAAPYITPYGTYVFSSDYWGQGTQVTVSS	low polyreactivity
QVQLVESGGGLVQAGGSLRLSCAASGRIFDFYAMGWYSQAPGKERELVAAIASSVGNTYYADSVTGRFTISRDNAKNTVSLQMISLKPEDTAVYYCADYSYVRSSYEVEYDYWGQGTQVTVSS	low polyreactivity
QVQLVESGGGLVQAGGSLRLSCAASGRIFDGNAMGWYRQAPWKERELVAAINRSGGRTYYADSVKGRFTISRDNAKNTVYLQMNSLKPEDTAVYYCATPYAGGTPADPGYDYWGQGTQVTVSS	high polyreactivity
QVQLVESGGGLVQAGGSLRLSCAASGRIFDGYAMGWYRQAPGKERELVAAINRSGSSTYYADSVKGRFTISRDNAKNTVYLQMNSLKPEDTAVYYCNARSGNRYGPRYDYWGQGTQVTVSS	high polyreactivity
QVQLVESGGGLVQAGGSLRLSCAASGRIFDINAMGWYRQAPGKESELVAAISRGGSTYYADSVKGRFTISRDNAKHTVDLQMNSLKPQDTAVYYCNKYRYRGSTVFDGYDYWGQGTQVTVSS	high polyreactivity
QVQLVESGGGLVQAGGSLRLSCAASGRIFDIYAMGWYRQAPGKERELVAAITRGGSTYADSVKGRFTISRDNAKNTVYLQMNSLKPEDTAVYYCAARPRLPRQIGGDGHLDDYWGQGTQVTVSS	high polyreactivity
QVQLVESGGGLVQAGGSLRLSCAASGRIFDIYAMGWYRQAPGKERELVAAITSGGSTYYADSVKGRFTNSRDNAKNTVYFQMNILKPEYTAVYYCAADSVLLKDTGYDYWGKGTQVTVSS	low polyreactivity
